Data reported in patent US20250099504A1 (INSTITUTE OF HEMATOLOGY AND BLOOD DISEASES HOSPITAL CHINESE …, published 2025).

Target: T1, human CD7 (human, UniProt P09564 26-240)
T1 construct: whole, on cells; also called CD7 antigen; CD7 on the surface of Jurkat, Molt4, CCRF-CEM and Hut78 cells
T1 sequence (looked up): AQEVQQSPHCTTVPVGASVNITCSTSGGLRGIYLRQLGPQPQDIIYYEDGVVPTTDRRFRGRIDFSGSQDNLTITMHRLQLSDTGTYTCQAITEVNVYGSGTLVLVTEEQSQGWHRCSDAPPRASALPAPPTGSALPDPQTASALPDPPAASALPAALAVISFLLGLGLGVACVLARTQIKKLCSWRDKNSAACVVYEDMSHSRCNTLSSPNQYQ
Experiment: FACS on Jurkat, Molt4, CEM and Hut78 cells that highly express human CD7; antibody at 0.15 µg/100 µl
Description: Binding of the monoclonal antibody HIT7 in Example 1 and the commercialized CD7-6B7 antibody (Biolegend, PE/Cyanine7 anti-human CD7 antibody, clone number CD7-6B7) to CD7 on the surface of Jurkat, Molt4, CCRF-CEM, and Hut78 cells that highly expressed human CD7 was tested by FACS: The antibody was incubated at a concentration of 0.15 μg/100 μl with 2×10⁵ Jurkat, Molt4, CEM, and Hut78 cells respectively at 4° C. in dark for 30 minutes, washed twice with PBS, resuspended by 100 μl, and loaded for FACS test.

binding result: binds
B1: monoclonal antibody HIT7 (antibody, V domains shown)
VH: QVQLQESGPGLVKPSQTVSLTCTVTGISITTGNYRWSWIRQFPGNKLEWIGYIYYSGIITYNPSRTSRTTITRDISKNQFFLEMNSLTAEDTATYYCARERGIYYDSLWYFDVWGAGTTVTVSS
VL: DIVLTQSPASLAVSLGQRATISCRASKSVSASGYSYMHWYQQKPGQPPKLLIYLASNLESGVPARFSGSGSGTDFTLNIHPVEEEDAVTYYCQHSRELPYTFGGGTKLEIKR
notes: also called CD7-HIT7 monoclonal antibody; mouse anti-human CD7 monoclonal antibody
